{"source": "paper PMC9926490", "about": "“Structural Basis for Cyclosporin Isoform-Specific Inhibition of Cyclophilins from Toxoplasma gondii” (ACS Infectious Diseases, 2023)", "key": {"[1]": {"tested_on": "C[C@H](NC(=O)CCC(=O)O)C(=O)N[C@@H](C)C(=O)N1CCC[C@H]1C(=O)N[C@@H](Cc1ccccc1)C(=O)Nc1ccc([N+](=O)[O-])cc1", "experiment": "purified protein, by the assay type", "assay_type": "biochemical, Toxoplasma gondii", "details": "other: substrate AAPF, 0 °C, pH 8.0", "method": "A trans-isomer is formed by Cyp, which is selectively cleaved by chymotrypsin, producing 4-nitroaniline, a yellow-colored product that can be measured spectrophotometrically.\nThe assay was performed in 50 mM Hepes, pH 8, and 100 mM NaCl at 0 °C. […] Once the temperature reached 0 °C, chymotrypsin solution, dissolved in HCl 1 mM, was added at 1.8 mg mL^–1 to start the reaction.\nSuccessively, Cyp was added in large excess to enhance the cis-to-trans isomerization. The cis population was estimated by the difference between the final and the initial absorbance.\nFor all of the experiments, the slope of the catalyzed reaction was corrected for the spontaneous thermal cis–trans isomerization in the presence of the only chymotrypsin.\nAll measurements were repeated as triplicate, and the error was calculated as the mean standard error of the three measurements. The error associated with the parameter kcat/Km was propagated in agreement with the following equation eq 1 [drawing 1]"}, "[2]": {"target": "human cyclophilin A (CypA) (human) (UniProt P62937)", "sequence (P62937 whole entry)": "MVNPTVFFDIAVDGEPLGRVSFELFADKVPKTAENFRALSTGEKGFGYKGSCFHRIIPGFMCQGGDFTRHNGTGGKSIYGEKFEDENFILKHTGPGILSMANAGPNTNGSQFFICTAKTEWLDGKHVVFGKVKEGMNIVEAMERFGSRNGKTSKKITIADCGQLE"}, "cyclosporin A (CsA)": {"target": "cyclosporin A (CsA)", "experiment": "ITC"}, "[3]": {"tested_on": "C[C@H](NC(=O)CCC(=O)O)C(=O)N[C@@H](C)C(=O)N1CCC[C@H]1C(=O)N[C@@H](Cc1ccccc1)C(=O)Nc1ccc([N+](=O)[O-])cc1", "experiment": "purified protein, by the assay type", "details": "other: substrate AAPF, 0 °C, pH 8.0"}}, "data": [{"substance": "TgCyp23 (Toxoplasma gondii VEG)", "values": [{"measurement": "Km", "setting": "[1]", "result": "530 ± 97", "unit": "µM"}, {"measurement": "kcat", "setting": "[1]", "result": "2010 ± 381", "unit": "s⁻¹"}, {"measurement": "kcat/Km", "setting": "[1]", "result": "3.8e+06 ± 200000", "unit": "M⁻¹ s⁻¹"}]}, {"substance": "cyclosporin A (CsA) (peptide)", "values": [{"measurement": "IC50 of CsA on PPIase activity (7 nM enzyme, AAPF substrate, chymotrypsin-coupled assay, 0-30 nM CsA)", "setting": "[2]", "result": 1, "unit": "nM"}]}, {"substance": "TgCyp18.4 (TgCyp289250), cyclophilin from Toxoplasma gondii (enzyme)", "values": [{"measurement": "stoichiometry N", "setting": "cyclosporin A (CsA)", "result": 1}]}, {"substance": "CypA (Homo sapiens)", "values": [{"measurement": "Km", "setting": "[3]", "result": "661 ± 93", "unit": "µM"}, {"measurement": "kcat", "setting": "[3]", "result": 3290, "unit": "s⁻¹"}, {"measurement": "kcat/Km", "setting": "[3]", "result": "4.9e+06", "unit": "M⁻¹ s⁻¹"}]}, {"substance": "TgCyp23 (TgCyp285760), cyclophilin from Toxoplasma gondii (enzyme)", "values": [{"measurement": "stoichiometry N", "setting": "cyclosporin A (CsA)", "result": 1}]}]}
